Changes are numbered by the printed parent chain.
Legend:
Test in all cases: MST; MST: 20 mM HEPES pH 7.3, 150 mM NaCl, 0.2 mM TCEP, 0.5% CA-630, 25 C; EMSA: 30 uM protein, 10 uM dsDNA, 20 mM Tris pH 8.0, 100 mM NaCl, 2.5 mM MgCl2, 0.1% CA-630, 10% glycerol, 1 uM ZnSO4, 1 mM DTT, 4 C
Settings in all cases: protein: recombinant; tags: His6-MBP or GST, TEV-cleavable; label: FAM in MST; none in crystal and EMSA; 5' overhang 1 nt on both strands, 15 bp
REF6 V1340A = biological target: T1, REF6 V1340A (Arabidopsis thaliana, UniProt Q9STM3 1223-1360, V1340A)
T1 sequence: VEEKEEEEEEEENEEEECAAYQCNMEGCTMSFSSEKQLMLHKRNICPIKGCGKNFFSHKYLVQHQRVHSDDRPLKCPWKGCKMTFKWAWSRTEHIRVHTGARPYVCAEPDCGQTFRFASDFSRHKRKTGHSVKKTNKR

REF6 K1281A = biological target: T2, REF6 K1281A (Arabidopsis thaliana, UniProt Q9STM3 1223-1360, K1281A)
T2 sequence: T1 sequence with K59A, A118V

REF6 E1315A = biological target: T3, REF6 E1315A (Arabidopsis thaliana, UniProt Q9STM3 1223-1360, E1315A)
T3 sequence: T1 sequence with E93A, A118V

B1: NAC004 m5 (dsDNA)
DNA 1: CTTTCTCTGTTTTGTC
DNA 2: GGACAAAACAGAGAAA
Work on B1 yielded a Kd (REF6 V1340A) of 500 nM, a Kd (REF6 K1281A) of 1300 nM and a Kd (REF6 E1315A) of 3700 nM.

Source: article PMC7105484, “Crystal structures of REF6 and its complex with DNA reveal diverse recognition mechanisms” (Cell Discovery, 2020)
